Results from publication doi:10.1101/2023.09.20.558697.
Where two headings read alike, the source gives them in different places.

Key:
Assay in all cases: EMSA
RokL6-His6 [1] = molecular target: T1, RokL6-His6 (Streptomyces coelicolor A3(2) M145, UniProt Q9L112 1-399)
T1 sequence: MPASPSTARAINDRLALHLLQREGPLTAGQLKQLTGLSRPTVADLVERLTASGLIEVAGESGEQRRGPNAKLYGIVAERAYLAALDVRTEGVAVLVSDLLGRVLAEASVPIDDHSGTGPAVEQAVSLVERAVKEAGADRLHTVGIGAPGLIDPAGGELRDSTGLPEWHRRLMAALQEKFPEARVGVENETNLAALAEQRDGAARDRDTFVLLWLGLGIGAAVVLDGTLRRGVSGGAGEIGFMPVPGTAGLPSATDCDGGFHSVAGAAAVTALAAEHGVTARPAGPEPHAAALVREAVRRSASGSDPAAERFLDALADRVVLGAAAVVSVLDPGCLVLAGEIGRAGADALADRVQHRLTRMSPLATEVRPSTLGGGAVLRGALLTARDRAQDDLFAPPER

RokL6-His6 [2] = molecular target: T1, RokL6-His6; remark: listed apart in the source
RokL6-His6 [3] = molecular target: T1, RokL6-His6; remark: listed apart in the source

B1: RokL6-M3 (dsDNA)
DNA 1: CGCACCGGTAATCCACTATCGAATTCGCAGGCTCCGGATCCGTTTACGCCGCGGATTGAC
DNA 2: GTCAATCCGCGGCGTAAACGGATCCGGAGCCTGCGAATTCGATAGTGGATTACCGGTGCG
B1: no binding (RokL6-His6 [1]).

B2: RokL6-BS (dsDNA)
DNA 1: CGCACCGGTAATCCACTATCTATCAGGCAGGCTCCCTGATAGTTTACGCCGCGGATTGAC
DNA 2: GTCAATCCGCGGCGTAAACTATCAGGGAGCCTGCCTGATAGATAGTGGATTACCGGTGCG
B2: binds (RokL6-His6 [2]).

B3: hrdB-P (dsDNA)
DNA 1: CGGCCCGCCCGCACCGTCGGCCCATTCCCAAGCCGGTGGTCGGCCCCTGTCCGCCGTGGA
DNA 2: TCCACGGCGGACAGGGGCCGACCACCGGCTTGGGAATGGGCCGACGGTGCGGGCGGGCCG
B3: no binding (RokL6-His6 [3]).
